The nature of the series: label from the status in PepcDB records.

For the sequence “MYVFFSKDYLSKQEQSIWEQSFLRGNLMKAVVIGAGEVGYHIAKFLSLTHDVIVIENDEDALRRADELDVQVVEGNGANADILASVLPDVDILVAVTGVDEVNIVACMTAKLILRAHPGWKETKTIARVSNPDYIDVPVTSRAQVGVDIMICPELALASEVAEVLSNPSAIDAEMFAGGKVQMMEFAIRPDNRLVGKRMQDIELEDCCIVSAIFRNNDIIIPHGDDFIKANDHMVVVGKPRAMADLENVFGNEGPHRNRILLIGCGIVGFYLAKIIDKDENADLKVIEYRKSRCIEVAEMLENALILNGDGTDVNLLREENIEDMDVVIAVTDNDEKNLLCSLLAKQMGAKKVIARADRSDYVPLFEMVGIDIAVSPREATVNEVLKLTMGKGIEALATIEGEKAEIIEYTASGQSKIVGKPLSKIKFPKGAIVTMVVHDDDVIIPRGEFIIREGDRVIIFALSSAVRSVEKLFK”, the protein production result was “failed”.

On to “MYVIIMGAGRIGTLVAKMLENSGHDVAIIEMNKDRARAVSDIVSGLVIEGDATDQNILESANVRNADAFVALTGKDDANILACILAKHLNPRIMTILRITDPRKKKIFEEVKDLKKYFDVVVSPEDIAANYIFRVVITPGFDRVLLPREGAEIIQFHIDENSKVAGKAVKDLNLPRDSLIIAIYDEKGNLIIPSGETILPKRGTVVVFAKDSALKEIKKIMEEKVEESEE”, for which the protein production result is “failed”.

As for “MYVLIGGAGLVGLTLAQKLVELGHTVAIIDVDHTACRYAREQVGAMAFEGSAVSTEVLLEAGIRKADALAAVLRNDALNLAMVMLAKHYGVSHILSRMRHADFAQPLRLAGANHVISTVELSVSTMVNAIEYPQVESMMHFEQGQIEVLKISIPNSCYVANRSLAEIAQDSRFPSGSLIIGYQPHPHEDLVIPNGSTVLESGSTILIATKPGSLHQVIDFIEGCKLEHHHHHH”, the protein production entry is “not failed”.

For “MYYGFDIGGTKIALGVFDSTRRLQWEKRVPTPHTSYSAFLDAVCELVEEADQRFGVKGSVGIGIPGMPETEDGTLYAANVPAASGKPLRADLSARLDRDVRLDNDANCFALSEAWDDEFTQYPLVMGLILGTGVGGGLVLNGKPITGQSYITGEFGHMRLPVDALTLMGFDFPLRRCGCGQMGCIENYLSGRGFAWLYQHYYDQSLQAPEIIALWEQGDEQAHAHVERYLDLLAVCLGNILTIVDPDLLVIGGGLSNFTAITTQLAERLPRHLLPVARAPRIERARHGDAGGMRGAAFLHLTD”, the protein production entry is on record as “not failed”.

As to “NDPDADRFAVAVRKDDGEYQMLTGDQVGVLFGHYLLSHASADQRLVGTTIVSSSLLSKIANGFGVESYTTLTGFKWLMNVGIAQSQPDNQFLFAYEEALGYTVGNMVWDKDGLSALVAFAQLTAELAAKGQTIWDRLEQIYREQGFHLN”, the protein production result is “failed”.

As to “NFDTNMFKLENYVKEKYSLESLEIIPNEFDDTPTILSERISQVAAGVLRNLIDDNMKIGFSWGKSLSNLVDLIHSKSVRNVHFYPLAGGPSHIHAKYHVNTLIYEMSRKFHGECTFMNATIVQENKLLADGILQSRYFENLKNSWKDLDIAVVGIGDFSNKGKHQWLDMLTEDDFKELTKVKTVGEICCRFFDSKGKEVYENLQERTIAISLEDLKNIPQSLAVAYGDTKVSSILSVLRANLVNHLITDKNTILKVLEEDGDL”, the protein production result is recorded as “not failed”.

In the case of “NFSNRVQDVIRLSREEALRLGHDYIGTEHLLLGLIREGEGIGAKILKNLKVDLFQLKQKIEENTHPKVPATQMGNVPLTKQAEKVLKITYLEAKICKSTIIGTEHLLLSILKGDDNIAAQILEQFGVTYDQVRDELMTITT”, the protein production entry was “not failed”.

As to “NFTLAITEAVSEKEIYNKLAENLPKILQADRGSVTLITENKDEFEVFSLQGPEGMLSIGKYFSVDNSLAGLAVQQEKTIISKLNADRIEIDAQQLYQQDLLSIMNSPLQFSDRIIGTVNIGSYKENAYDSTSLELLTLVSTLVSNYLERQHLLEQAQIGVKQYKTYSKQLESLNHVAEELCAATNE”, the protein production entry is recorded as “failed”.

On to “NGKLFLVGTPIGNLKDITLRALETLQNCDVIAAEDTRQSLKLLNHFDIKKPLISYHKFNENNRSSELMDMVREGKKVALVTDAGMPGISDPGSVIVEKFIENNLEFEVIPG”, for which the protein production result is “not failed”.

“NIGSAVPRGELVLAMEKIGKLLQERGGSVVIRGHTDGRQFKGEANDNWRLSMDRAHSAYYMLVRGGLSEERVKQVSGFADRRLQVPSNPLADANRRIEILLEADR”: the protein production result is on record as “failed”.

In the case of “NIPEIENANLKPALKDSVLPDGFYSTTNHPTHVKVNDEWIEVANPKMDAVIVVYPEEKRAETKVIRKVKKGDFVLIGHNGIRVMPPEKSREAGQLFEFMNSEVSSEKPKEAIIKRIAKEMHEIREEYKKTGTGGIAIVGGPAIIHTGGGPALAKMVELGYIQAILAGNALATHDIESALYGTSLGVNIKTAKPVTGGHKHHIYAINAINDAGNIKNAVESGVLKEGIMYQCIKNNIPYVLAGSIRDDGPIPDVITDSMVAQDKMRTTVMDKKMVIMLSTLLHSVATGNLMPSYIKTVCVDIQPSTVTKLMDRGTSQAIGVVTDVGVFLVLLLKELERLELQE”, the protein production entry is listed as “not failed”.

For “NKSYRSTEQITNFAKALLPDGDQIQAFTRKGDLPKVMIRYGEDAALSSLRSEVEHQLKATNTVAVLTKDLAESKQVYQYLKRYTVTTLMADSDRTMPQGVIVMPIYLAKGLEFDAVVAYDVSATNYPDADSVGILYTIASRAMHHLTLLSIGDVSPLIAQLDPTLFTIEHQVRV”, the protein production entry was “not failed”.

For the sequence “NKYNKIANELIKIIGEDNIISITHCATRLRVMVKDREIINDKKVEKVDEVKGVFFTSGQYQIILGTGIVNKVYAEVEKMGLKTLSKKEQDELVKNNE”, the protein production entry is reported as “not failed”.

Take “NLDPQRVEQEMILLAQRIDVAEELDRLQMHVKETTNILKKGGAVGRKLDFMMQELNRESNTLASKSINADITASAVELKVLIEQMREQIQNLE”: the protein production entry is reported as “failed”.

With “NLNAIQNFGAMDILCTDKTGTLTCDKIVLEKYINADGSDDNSKRILRHAYFNSYFQTGLRNLMDKAILSHVRELNLEHLKDAYTKVDEIPFDFTRRRMSVVIEDRQGKRQIITKGAVEEILDVCSYAEFDREIHPLTDSLKIKAQKISEEMNRQGMRVLAVSQKSFIEKDCNFAIEDEKEMVLIGYLAFLDP”, the protein production result is recorded as “not failed”.

Turning to “NLSELTPYILCSICKGYLIDATTITECLHTFCKSCIVRHFYYSNRCPKCNIVVHQTQPL”, the protein production entry was “not failed”.

“NNLFVYCEIEEGIVADVSLELLTKGRSLANELNCQLEAVVAGTGLKEIEKQILPYGVDKLHVFDAEGLYPYTSLPHTSILVNLFKEEQPQICLMGATVIGRDLGPRVSSALTSGLTADCTSLEIGDHEDKKEGKVYKNLLYQIRPAFGGNIVATIVNPEHRPQMATVREGVMKKEIVSPAYQGEVIRHDVKKYVADTDYVVKVIERHVEKAKNN”: the protein production result is given as “not failed”.

“NPHMWWLQDADPENNSRQASPSQESINQLVYMGFDTVVAEAALRVFGGNVQLAAQTLAHHGGSLPPDLQF”: the protein production entry is “not failed”.

Consider “NQLIRGRLVVGMVTACTVKPLFDALSAFHVAHPGIEITLTEDSSDRLVERVRAGAIDLALVGTATAPPDGLDAFPIISEGLVAAVPPGHPLAGRSRVTLAELGDHAIVCMPTGTGIRTVFDQACAAAGLRPDIALQASAPDAVADLAIRG”, for which the protein production result is “failed”.

With “NQPAYKDSSLSPEERAEDLLQQLTLEEKVALMMDNSKPVERLGIKPYNWWNEALHGVARSGLATVFPQPIGMAASFEPDAIHTIYTAVSDEARAKNAAYSAAGSYERYQGLTMWTPTVNIYRDPRWGRGIETYGEDPYLTSVMGVNVVKGLQCMDANQKYDKIHACAKHFAVHSGPEWNRHEFNAENIKPRDLHETYLVPFEALVKEAKVKEVMCAYNRLEGDPCCGSDRLLMQILRQDWGYDGIVLSDCGAIDDFYREKGHKTHPDAESASAAAVLSGTDLECGSSYKALVESAKKGLISEKDIDVSVKRLLKARFELGEMDDP”, the protein production result was “failed”.

Consider “NRFIGYIQVACCCLLLCASCVRDGMDEDCNSYVRFVYDYNLEYIDLFHKQATKMNLYVFDEKGVFVTELKEESGAFAPDYLMTLPGAMAGRRYIFVAWSGLYGESYDKVTLTPGVSTLEDLEVSVNNLKTRIGGGVVDRELHLLWHGKQTEVSPQYNNDITTVSLLKNTKKFRIIMQMLDDSSIHVDDYDFRIISPNGRYNHENGLLGDETDEKVEYTAYHTEDDPETGAIAELNTLRLMTDTENRLVITHKSSGNVILDIPLNKYLNALRLQQYADIPLQEYLDRADKHGIILFFKGMDGNGNYISVDVQINGWLIRKQEVD”, for which the protein production result was “not failed”.

For the sequence “NSFDSSNYFYGGNNICIINTKWGKHSGIGGYAEIIDTLVGNFTNISSWAKIGIRDHIHTNFLICDFVYKDNDHIMPPGISSFEDYWVKIGNDVWVGTNVTILRGVEVGDGAVIAAGSVVTKSIPPYAIVGGNPAKFIKWRFPFEVREKLLEIKWWDWDDDLIKEKKDYLQNLVGFDMDKYKIEYRKRKED”, the protein production entry is “failed”.

On to “NYNIYDHPKAAEDRKNTVLYLMHYHKRITDKQWEDAKKIDLKANLVNRTPEERQNIDTNQDSEYNSYVNFVKSELMNNKAFKDENLGNVLQSG”, for which the protein production entry is listed as “failed”.

Consider “PALPYAKSLAPVDLTDCSAQALETARQLGLLQRTKLIVMHVYDAAAAGMLNYAGVDKTSLDDYLVDTRTDAVRDLVRFLEPLRLDDVDYSTVVKEGAGPATDIIEAATELRPDLVVIGTHARRGAVRLLLSSVTEEVLRRLQRDILVVPVRDAGS”, for which the protein production entry is on record as “failed”.

Turning to “PDRAWINRCRTLSEHTDKAVRAQLAAHPKATGLHVAAAVMDALTDGDQLLLGASNPVRDAALVSYPAPKIRVLSNRGVAGIDGTVSAAVGAALAYEEGRTVALLGDLTFLHDASGLLIGSGEPRPRDLTIVVANDDGGGIFELLEQGDPQYAGVFERVFGTPHGMDLAALCAAYRVEHHLVGLGELSTRLSAPEAPGDRGIRVLEVTTERSGLRELHAAVRAQL”, the protein production entry is recorded as “failed”.

In the case of “PECDWWALGVFAYEMFYGQTPFYADSTAETYGKIVHYKEHLSLPLVDEGVPEEARDFIQRLLCPPETRLGRGGAGDFRTHPFFFGLDWDGLRDSVPPFTPDFEGATDTCNFDLVEDGLTAMVSGGGETLSDIREGAPLGVHLPFVGYSYSCMALRDSEVPGPTPMEVEAEQLLEPHVQAPSLEPSVSPQDET”, the protein production entry is listed as “failed”.

With “PEQHRLRYQSLKQQLDDYYQEVTVQNYLDLTTRSHAFDQWLNNNIQLDWVKATVVKDAPDKIRAKANKEQHLNFQLIKHLEKPEDNVDLISAYFVPEKQGAKHLSDMAQDGIKVRVLTNSFKANDVPVVHAFYAKYRQELLENGVQLYEFLPTLEKEELDKYTDELVKKAKVSIKGLSRSSLHAKMMALDQKQVFIGSFNFDPRSAYLNTEIGVILNSPPLAMAVHQTMDQQLTHYAYKLVLDANHKINWYRQTS”, the protein production entry is reported as “failed”.

Turning to “PFIMDAPRDLNISEGRMAELKCRTPPMSSVKWLLPNGTVLSHASRHPRISVLNDGTLNFSHVLLSDTGVYTCMVTNVAGNSNASAYLNVS”, the protein production entry was “not failed”.

Regarding “PFKESQARGLLQDNMANSYNGGDFEDGLLNLSKEVFPTDKYLYQDGQFLDKKTINAYLNPKYTKREIDKMSEKDKKDKKANENLGLNPSHEGETNPEKIAEKSPAYLSNILEQDFYGGGDTKGKNIKGMTIGLAMNSVYYYKKEKDGPTFSKKLDDSEVKKQGKQMASEILSRLRENDDLKDIPIHFAIYKQSSEDSITPGEFITQATAEKSQTKLNEWHNINEKSALLPSSTAADYDENLNNNFKQFNDNLQSYFSNFTQAVGKVKFVDKKPQRLVVDLPIDYYGQAETIGITQYVTEQANKYFDKIDNYEIRIKDGNQPRALISKTKDDKEPQVHIYSN”, the protein production entry is recorded as “not failed”.

On to “PGGPEEQWQRAIHERGEAVCPTCNVVTRKTLVGLKKHMEVCQKLQDALKCQHCRKQFKSKAGLNYHTMAEHSAKPSDAEASEGGE”, for which the protein production result is “not failed”.

These data come from a protein production outcome set (Wang et al. 2014).
